Measured values reported in IntAct's records for PubMed 24286120.

B1: Malignant fibrous histiocytoma-amplified sequence 1 (Homo sapiens), Q9Y4C4 (parent)
chain: MAGMDSGNLKTARLWRDAALRARKLRSNLRQLTLTAAGACPGAGADALESPASPQLVLPANLGDIEALNLGNNGLEEVPEGLGSALGSLRVLVLRRNRFARLPPAVAELGHHLTELDVSHNRLTALGAEVVSALRELRKLNLSHNQLPALPAQLGALAHLEELDVSFNRLAHLPDSLSCLSRLRTLDVDHNQLTAFPRQLLQLVALEELDVSSNRLRGLPEDISALRALKILWLSGAELGTLPAGFCELASLESLMLDNNGLQALPAQFSCLQRLKMLNLSSNLFEEFPAALLPLAGLEELYLSRNQLTSVPSLISGLGRLLTLWLDNNRIRYLPDSIVELTGLEELVLQGNQIAVLPDHFGQLSRVGLWKIKDNPLIQPPYEVCMKGIPYIAAYQKELAHSQPAVQPRLKLLLMGHKAAGKTLLRHCLTEERVEGCPGGGDKEKCYPPSPPPVSKGIEVTSWTADASRGLRFIVYDLAGDESYEVIQPFFLSPGALYVLVVNLATYEPRHFPTTVGSFLHRVGARVPHAVVCIVGTHADLCGERELEEKCLDIHRQIALQEKHDAEGLSRLAKVVDEALARDFELRSASPHAAYYGVSDKNLRRRKAHFQYLLNHRLQILSPVLPVSCRDPRHLRRLRDKLLSVAEHREIFPNLHRVLPRSWQVLEELHFQPPQAQRLWLSWWDSARLGLQAGLTEDRLQSALSYLHESGKLLYFEDSPALKEHVFHNLTRLIDILNVFFQRDPSLLLHKLLLGTSGEGKAEGESSPPMARSTPSQELLRATQLHQYVEGFLLHGLLPAHVIRLLLKPHVQAQQDLQLLLELLEKMGLCYCLNKPKGKPLNGSTAWYKFPCYVQNEVPHAEAWINGTNLAGQSFVAEQLQIEYSFPFTFPLGLFARYSVQINSHVVHRSDGKFQIFAYRGKVPVVVSYRPARGVLQPDTLSIASHASLPNIWTAWQAITPLVEELNVLLQEWPGLHYTVHILCSKCLKRGSPNPHAFPGELLSQPRPEGVAEIICPKNGSERVNVALVYPPTPTVISPCSKKNVGEKHRNQ

Variants of: B1
Conditions: with ch60_human HSPD1, P10809
Sequence of ch60_human HSPD1, P10809 (P10809 whole entry): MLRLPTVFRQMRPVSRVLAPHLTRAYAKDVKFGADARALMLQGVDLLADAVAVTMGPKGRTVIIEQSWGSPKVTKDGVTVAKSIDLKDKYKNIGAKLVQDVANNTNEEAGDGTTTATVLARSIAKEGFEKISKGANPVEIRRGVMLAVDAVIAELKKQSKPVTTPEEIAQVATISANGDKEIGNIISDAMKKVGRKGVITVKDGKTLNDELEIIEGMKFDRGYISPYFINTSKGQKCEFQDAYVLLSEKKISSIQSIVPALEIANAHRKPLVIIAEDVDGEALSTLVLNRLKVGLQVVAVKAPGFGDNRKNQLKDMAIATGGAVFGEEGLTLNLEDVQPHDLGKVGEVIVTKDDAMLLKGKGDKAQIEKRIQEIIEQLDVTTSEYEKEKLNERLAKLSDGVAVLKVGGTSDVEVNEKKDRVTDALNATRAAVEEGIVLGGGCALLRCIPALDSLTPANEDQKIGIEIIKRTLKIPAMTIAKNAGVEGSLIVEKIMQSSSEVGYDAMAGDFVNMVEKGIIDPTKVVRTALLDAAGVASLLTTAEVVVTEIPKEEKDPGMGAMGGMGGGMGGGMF

**Q.** For K422A, which “effect of a mutation on the interaction” value is on record?
**A.** increasing interaction
